Each sequence was assayed on viral hemagglutinin on virions (vHA) (Influenza A virus A/chicken/Kurgan/3654at/2005 (H5N1)) (assay: BLI). Conditions: BLI at 30 C in sodium-potassium phosphate buffer pH 7.4 ([…].
Sequence GGGTTATTTTGGGAGGGCGGGGGTT [G7n5t] has a Kd of 0.04 nM.
GGGAGGGAGGGCGGG [G7nt-A_A_C] showed a Kd of 0.3 nM.
GGGTGGGTGGGTGGG [G7nt-T_T_T] showed a Kd of 0.6 nM.
Work on GGGTTATTTTGGGAGGGCGGG [G7nt] yielded a Kd of 0.13 nM.
GGGTGGGAGGGCGGG [G7nt-T_A_C] showed a Kd of 0.3 nM.
Sequence TTGGGGTTATTTTGGGAGGGCGGGGGTT [RHA0385] has a Kd of 0.05 nM.
With GGGAGGGAGGGAGGG [G7nt-A_A_A] the Kd was 0.2 nM.
With GGGTGGGAGGGTGGG [G7nt-T_A_T] the Kd was 0.07 nM.
With “TTGGGGTTATTAAGGGAGGGCGGGGGTT [G7-TTATTAA_A_C]” the Kd was 0.09 nM.
For GGGAGGGTGGGTGGG [G7nt-A_T_T], the Kd was 0.2 nM.
For TTGGGGTTATTTTGGGAGGGCGGG [G7n3t], the Kd was 0.16 nM.
Sequence TTGGGGTTAGGGAGGGCGGGGGTT [G7-TTA_A_C] has a Kd of 0.04 nM.
With GGGTGGGTGGGAGGG [G7nt-T_T_A] the Kd was 0.7 nM.
